Results taken from US20100233191A1.

Biological target: MPP1 (proaerolysin with the furin site replaced by the PSA substrate HSSKLQ) (Aeromonas hydrophila) (UniProt P09167)
Experiment: cell-based or functional assay

## Prostate-specific antigen (PSA), also referred as hK3 (from UniProt P07288 25-261) (enzyme)
  LD50 (cell killing, Trypan Blue exclusion, PSA-producing LNCaP cells, 24 h): 100 pM
  fold difference in toxicity, PSA-producing versus non-PSA producing cells: 500 fold
